Assays:
Experiment in all cases: ELISA: SEAP-His proteins (1 nM) captured on anti-6-His antibody, antibody B 10 µg/mL with human IgG 100 µg/mL, HRP anti-human IgG, OD450 as % of human EphA4-SEAP-His
[1] = biological target: T1, human EphA2 extracellular region-SEAP-His protein (human, UniProt P29317 24-537)
T1 construct: extracellular domain; also called Eph receptor extracellular region-SEAP-His protein; not shown: secretory alkaline phosphatase (SEAP); histidine tag

[2] = biological target: T2, human EphA5 extracellular region-SEAP-His protein (human, UniProt P54756 25-573)
T2 construct: extracellular domain; also called Eph receptor extracellular region-SEAP-His protein; not shown: secretory alkaline phosphatase (SEAP); histidine tag
T2 sequence (P54756 25-573): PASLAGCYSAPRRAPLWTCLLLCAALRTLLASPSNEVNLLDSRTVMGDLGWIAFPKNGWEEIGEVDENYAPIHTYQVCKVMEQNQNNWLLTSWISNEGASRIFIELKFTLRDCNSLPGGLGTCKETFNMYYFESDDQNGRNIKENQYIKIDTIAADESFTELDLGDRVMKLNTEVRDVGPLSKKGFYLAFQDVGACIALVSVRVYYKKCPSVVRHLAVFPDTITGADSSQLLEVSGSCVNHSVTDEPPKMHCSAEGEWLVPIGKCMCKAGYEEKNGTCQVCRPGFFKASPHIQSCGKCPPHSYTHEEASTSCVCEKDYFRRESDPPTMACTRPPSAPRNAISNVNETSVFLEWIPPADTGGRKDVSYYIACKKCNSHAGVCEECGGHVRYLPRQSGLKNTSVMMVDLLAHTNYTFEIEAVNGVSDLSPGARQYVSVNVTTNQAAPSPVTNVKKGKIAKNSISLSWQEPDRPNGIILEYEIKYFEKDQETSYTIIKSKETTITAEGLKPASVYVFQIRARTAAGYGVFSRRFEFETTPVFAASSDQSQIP

[3] = biological target: T3, human EphA7 extracellular region-SEAP-His protein (human, UniProt Q15375 28-555)
T3 construct: extracellular domain; also called Eph receptor extracellular region-SEAP-His protein; not shown: secretory alkaline phosphatase (SEAP); histidine tag
T3 sequence (looked up): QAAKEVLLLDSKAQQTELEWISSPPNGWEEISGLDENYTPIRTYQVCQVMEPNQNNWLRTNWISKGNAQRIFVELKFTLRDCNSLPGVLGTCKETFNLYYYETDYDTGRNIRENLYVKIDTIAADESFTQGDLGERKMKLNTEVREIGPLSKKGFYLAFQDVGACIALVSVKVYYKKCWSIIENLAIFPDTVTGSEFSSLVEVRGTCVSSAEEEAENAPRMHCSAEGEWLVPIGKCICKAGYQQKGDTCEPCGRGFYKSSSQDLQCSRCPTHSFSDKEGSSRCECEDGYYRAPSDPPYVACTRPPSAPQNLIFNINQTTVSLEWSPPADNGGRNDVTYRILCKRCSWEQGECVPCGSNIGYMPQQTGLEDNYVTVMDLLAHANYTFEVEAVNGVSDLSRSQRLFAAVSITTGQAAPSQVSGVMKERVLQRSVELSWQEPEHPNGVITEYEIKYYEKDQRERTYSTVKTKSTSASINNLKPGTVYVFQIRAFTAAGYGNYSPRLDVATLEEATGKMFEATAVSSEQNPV

[4] = biological target: T4, human EphB1 extracellular region-SEAP-His protein (human, UniProt P54762 18-540)
T4 construct: extracellular domain; also called Eph receptor extracellular region-SEAP-His protein; not shown: secretory alkaline phosphatase (SEAP); histidine tag
T4 sequence (looked up): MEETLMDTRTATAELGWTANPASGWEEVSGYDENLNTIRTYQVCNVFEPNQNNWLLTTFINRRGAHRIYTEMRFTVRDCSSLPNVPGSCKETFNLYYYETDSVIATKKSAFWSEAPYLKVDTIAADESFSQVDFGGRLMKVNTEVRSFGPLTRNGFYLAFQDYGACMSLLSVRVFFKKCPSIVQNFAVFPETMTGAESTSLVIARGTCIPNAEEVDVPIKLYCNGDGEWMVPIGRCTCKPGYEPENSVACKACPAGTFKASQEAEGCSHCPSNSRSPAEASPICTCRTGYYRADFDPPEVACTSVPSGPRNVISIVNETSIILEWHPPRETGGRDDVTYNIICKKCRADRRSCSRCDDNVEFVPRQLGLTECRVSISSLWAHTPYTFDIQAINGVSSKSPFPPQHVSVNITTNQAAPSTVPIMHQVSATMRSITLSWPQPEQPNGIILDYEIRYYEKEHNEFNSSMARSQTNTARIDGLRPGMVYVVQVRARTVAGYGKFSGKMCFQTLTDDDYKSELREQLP

[5] = biological target: T5, human EphB6 extracellular region-SEAP-His protein (human, UniProt O15197 32-594)
T5 construct: extracellular domain; also called Eph receptor extracellular region-SEAP-His protein; not shown: secretory alkaline phosphatase (SEAP); histidine tag
T5 sequence (looked up): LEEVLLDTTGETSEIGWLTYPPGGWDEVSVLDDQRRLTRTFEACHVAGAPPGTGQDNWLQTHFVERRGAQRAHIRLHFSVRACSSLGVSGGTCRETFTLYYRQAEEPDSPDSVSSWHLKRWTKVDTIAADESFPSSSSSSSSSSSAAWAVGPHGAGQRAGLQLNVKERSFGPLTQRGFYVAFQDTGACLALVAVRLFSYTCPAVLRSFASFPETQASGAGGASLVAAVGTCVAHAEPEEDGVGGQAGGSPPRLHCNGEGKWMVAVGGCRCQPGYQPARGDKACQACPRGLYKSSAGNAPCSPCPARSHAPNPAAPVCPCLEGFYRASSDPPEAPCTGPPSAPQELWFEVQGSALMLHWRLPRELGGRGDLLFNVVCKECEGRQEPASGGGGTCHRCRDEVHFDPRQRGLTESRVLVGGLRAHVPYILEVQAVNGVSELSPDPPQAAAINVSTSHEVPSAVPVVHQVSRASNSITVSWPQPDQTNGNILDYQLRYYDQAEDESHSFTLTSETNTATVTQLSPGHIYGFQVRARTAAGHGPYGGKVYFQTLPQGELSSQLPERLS

Measured: binding result

T1 sequence (P29317 24-537): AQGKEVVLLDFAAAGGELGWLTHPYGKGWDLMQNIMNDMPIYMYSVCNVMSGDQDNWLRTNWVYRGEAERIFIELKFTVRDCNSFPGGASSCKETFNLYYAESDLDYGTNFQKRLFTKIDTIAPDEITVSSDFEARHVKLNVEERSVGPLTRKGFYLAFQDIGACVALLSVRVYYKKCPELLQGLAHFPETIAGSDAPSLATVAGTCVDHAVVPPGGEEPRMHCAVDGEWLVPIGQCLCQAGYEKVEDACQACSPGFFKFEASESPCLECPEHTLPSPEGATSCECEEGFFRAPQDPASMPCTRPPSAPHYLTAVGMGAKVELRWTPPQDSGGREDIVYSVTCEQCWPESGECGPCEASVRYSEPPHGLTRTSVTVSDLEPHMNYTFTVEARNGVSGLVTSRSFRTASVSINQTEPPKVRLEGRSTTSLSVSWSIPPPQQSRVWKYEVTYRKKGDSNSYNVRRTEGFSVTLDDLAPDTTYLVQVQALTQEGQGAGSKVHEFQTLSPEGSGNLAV

B1: humanized anti-EphA4 monoclonal antibody (antibody B) (antibody, human IgG2, V domains shown)
VH: QVQLVESGGGVVQPGRSLRLSCAVSGFSLTRFGVHWVRQAPGKGLEWVAVIWRGGSTDYNAAFMSRLTISKDNSKNTVYLQMNSLRAEDTAVYYCAKESLFGVYYDYGYYSMDYWGQGTTVTVSS
VL: DIQMTQSPSSLSASVGDRVTITCRASQEISGYLSWLQQKPGKAPKRLIYAASTLDSGVPSRFSGSRSGTEYTLTISSLQPEDFATYYCLQYASYPLTFGGGTKVEIKR
notes: expressed in Expi293F cells; also called humanized antibody of antibody A; HK2-42 / L1-8
no binding (tested: 10 µg/mL): all assays above
